Experimental data from the supplement of paper PMC6757056.
± gives the standard deviation of the averaged measurements.

B1: library; a variant is named by its letters at N, in order (parent)
chain: GCUGUCACCGAGAAACUGUGAAGUAUAUCUUAAACCUGGGCACUUAAAAGAUAUAUGGAGUUAGUAGUGCAACCUGCUCGGUCUGAUGAGUCCNNNNNNGGACGAAACAGC

Assays:
cyclic di-GMP [1] = variants of: B1; assay: normalized RNA/DNA level without ligand (relative to sTRSVctl = 100) (log10 (% of sTRSVctl)); HEK293T; ligand: cyclic di-GMP (c-di-GMP-II aptamer); higher = less ribozyme self-cleavage, higher mRNA level; settings: reporter: mCherry (pCS4076), ligand present: no
Outline: (§1)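 Ribozyme switch library plasmids with mCherry reporters (eGFP in certain ligand experiments) went into HEK293T cells at 4 µg per 6-well well. Where ligand was used, it was applied 1 h before transfection, and total RNA was extracted with EDTA 72 h later for reverse transcription, amplification, barcoding and sequencing. RNA level is the RNA-to-DNA read ratio normalized to a spiked-in non-cleaving sequence or to the leading sequences, then scaled and log-transformed. Scaling was ×100 with log10, the leading set comprised 25 sequences, and the cutoff was ≥100 DNA reads.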

cyclic di-GMP [2] = variants of: B1; assay: normalized RNA/DNA level with ligand (relative to sTRSVctl = 100) (log10 (% of sTRSVctl)); HEK293T; ligand: cyclic di-GMP (c-di-GMP-II aptamer); ligand concentration (+) RNA-Seq: 1 mM; higher = less ribozyme self-cleavage, higher mRNA level; settings: reporter: mCherry (pCS4076), ligand present: yes
Outline: as §1

Row | Variant | normalized RNA/DNA level without ligand (log10) (cyclic di-GMP [1]) | normalized RNA/DNA level with ligand (log10) (cyclic di-GMP [2])
1 | GCUGUCACCGAGAAACUGUGAAGUAUAUCUUAAACCUGGGCACUUAAAAGAUAUAUGGAGUUAGUAGUGCAACCUGCUCGGUCUGAUGAGUCCGAUACCGGACGAAACAGC [GAUACC] | 1.758 ± 0.0066 | 1.89 ± 0.066
2 | GCUGUCACCGAGAAACUGUGAAGUAUAUCUUAAACCUGGGCACUUAAAAGAUAUAUGGAGUUAGUAGUGCAACCUGCUCGGUCUGAUGAGUCCGAUACGGGACGAAACAGC [GAUACG] | 1.62 ± 0.019 | 1.76 ± 0.12
3 | GCUGUCACCGAGAAACUGUGAAGUAUAUCUUAAACCUGGGCACUUAAAAGAUAUAUGGAGUUAGUAGUGCAACCUGCUCGGUCUGAUGAGUCCGAUACUGGACGAAACAGC [GAUACU] | 1.7 ± 0.025 | 1.82 ± 0.068
4 | GCUGUCACCGAGAAACUGUGAAGUAUAUCUUAAACCUGGGCACUUAAAAGAUAUAUGGAGUUAGUAGUGCAACCUGCUCGGUCUGAUGAGUCCGAUAAGGGACGAAACAGC [GAUAAG] | 1.54 ± 0.036 | 1.72 ± 0.1
5 | GCUGUCACCGAGAAACUGUGAAGUAUAUCUUAAACCUGGGCACUUAAAAGAUAUAUGGAGUUAGUAGUGCAACCUGCUCGGUCUGAUGAGUCCGAUAGGGGACGAAACAGC [GAUAGG] | 1.573 ± 0.0085 | 1.73 ± 0.087
6 | GCUGUCACCGAGAAACUGUGAAGUAUAUCUUAAACCUGGGCACUUAAAAGAUAUAUGGAGUUAGUAGUGCAACCUGCUCGGUCUGAUGAGUCCGAUAGCGGACGAAACAGC [GAUAGC] | 1.64 ± 0.019 | 1.76 ± 0.14
7 | GCUGUCACCGAGAAACUGUGAAGUAUAUCUUAAACCUGGGCACUUAAAAGAUAUAUGGAGUUAGUAGUGCAACCUGCUCGGUCUGAUGAGUCCGAUAGAGGACGAAACAGC [GAUAGA] | 1.46 ± 0.11 | 1.64 ± 0.094
8 | GCUGUCACCGAGAAACUGUGAAGUAUAUCUUAAACCUGGGCACUUAAAAGAUAUAUGGAGUUAGUAGUGCAACCUGCUCGGUCUGAUGAGUCCUAUAAGGGACGAAACAGC [UAUAAG] | 1.66 ± 0.03 | 1.82 ± 0.14
9 | GCUGUCACCGAGAAACUGUGAAGUAUAUCUUAAACCUGGGCACUUAAAAGAUAUAUGGAGUUAGUAGUGCAACCUGCUCGGUCUGAUGAGUCCUAUAACGGACGAAACAGC [UAUAAC] | 1.697 ± 0.015 | 1.85 ± 0.12
10 | GCUGUCACCGAGAAACUGUGAAGUAUAUCUUAAACCUGGGCACUUAAAAGAUAUAUGGAGUUAGUAGUGCAACCUGCUCGGUCUGAUGAGUCCUAUAAUGGACGAAACAGC [UAUAAU] | 1.66 ± 0.063 | 1.8 ± 0.099
11 | GCUGUCACCGAGAAACUGUGAAGUAUAUCUUAAACCUGGGCACUUAAAAGAUAUAUGGAGUUAGUAGUGCAACCUGCUCGGUCUGAUGAGUCCCAUAGCGGACGAAACAGC [CAUAGC] | 1.73 ± 0.062 | 1.84 ± 0.13
12 | GCUGUCACCGAGAAACUGUGAAGUAUAUCUUAAACCUGGGCACUUAAAAGAUAUAUGGAGUUAGUAGUGCAACCUGCUCGGUCUGAUGAGUCCCAUAGGGGACGAAACAGC [CAUAGG] | 1.688 ± 0.011 | 1.85 ± 0.093
13 | GCUGUCACCGAGAAACUGUGAAGUAUAUCUUAAACCUGGGCACUUAAAAGAUAUAUGGAGUUAGUAGUGCAACCUGCUCGGUCUGAUGAGUCCCAUAGAGGACGAAACAGC [CAUAGA] | 1.54 ± 0.073 | 1.69 ± 0.031
14 | GCUGUCACCGAGAAACUGUGAAGUAUAUCUUAAACCUGGGCACUUAAAAGAUAUAUGGAGUUAGUAGUGCAACCUGCUCGGUCUGAUGAGUCCUAUACAGGACGAAACAGC [UAUACA] | 1.711 ± 0.0027 | 1.85 ± 0.12
15 | GCUGUCACCGAGAAACUGUGAAGUAUAUCUUAAACCUGGGCACUUAAAAGAUAUAUGGAGUUAGUAGUGCAACCUGCUCGGUCUGAUGAGUCCUAUACGGGACGAAACAGC [UAUACG] | 1.75 ± 0.029 | 1.85 ± 0.11
16 | GCUGUCACCGAGAAACUGUGAAGUAUAUCUUAAACCUGGGCACUUAAAAGAUAUAUGGAGUUAGUAGUGCAACCUGCUCGGUCUGAUGAGUCCUAUACCGGACGAAACAGC [UAUACC] | 1.76 ± 0.053 | 1.86 ± 0.1
17 | GCUGUCACCGAGAAACUGUGAAGUAUAUCUUAAACCUGGGCACUUAAAAGAUAUAUGGAGUUAGUAGUGCAACCUGCUCGGUCUGAUGAGUCCAAUACCGGACGAAACAGC [AAUACC] | 1.71 ± 0.031 | 1.86 ± 0.069
18 | GCUGUCACCGAGAAACUGUGAAGUAUAUCUUAAACCUGGGCACUUAAAAGAUAUAUGGAGUUAGUAGUGCAACCUGCUCGGUCUGAUGAGUCCAAUACAGGACGAAACAGC [AAUACA] | 1.56 ± 0.017 | 1.74 ± 0.1
19 | GCUGUCACCGAGAAACUGUGAAGUAUAUCUUAAACCUGGGCACUUAAAAGAUAUAUGGAGUUAGUAGUGCAACCUGCUCGGUCUGAUGAGUCCAAUACUGGACGAAACAGC [AAUACU] | 1.71 ± 0.023 | 1.84 ± 0.085
20 | GCUGUCACCGAGAAACUGUGAAGUAUAUCUUAAACCUGGGCACUUAAAAGAUAUAUGGAGUUAGUAGUGCAACCUGCUCGGUCUGAUGAGUCCCAUACGGGACGAAACAGC [CAUACG] | 1.81 ± 0.051 | 1.91 ± 0.052
21 | GCUGUCACCGAGAAACUGUGAAGUAUAUCUUAAACCUGGGCACUUAAAAGAUAUAUGGAGUUAGUAGUGCAACCUGCUCGGUCUGAUGAGUCCCAUACUGGACGAAACAGC [CAUACU] | 1.51 ± 0.044 | 1.7 ± 0.12
22 | GCUGUCACCGAGAAACUGUGAAGUAUAUCUUAAACCUGGGCACUUAAAAGAUAUAUGGAGUUAGUAGUGCAACCUGCUCGGUCUGAUGAGUCCCAUACAGGACGAAACAGC [CAUACA] | 1.38 ± 0.11 | 1.58 ± 0.1
23 | GCUGUCACCGAGAAACUGUGAAGUAUAUCUUAAACCUGGGCACUUAAAAGAUAUAUGGAGUUAGUAGUGCAACCUGCUCGGUCUGAUGAGUCCCAUAAGGGACGAAACAGC [CAUAAG] | 1.706 ± 0.013 | 1.82 ± 0.1
24 | GCUGUCACCGAGAAACUGUGAAGUAUAUCUUAAACCUGGGCACUUAAAAGAUAUAUGGAGUUAGUAGUGCAACCUGCUCGGUCUGAUGAGUCCAAUAAUGGACGAAACAGC [AAUAAU] | 1.63 ± 0.051 | 1.8 ± 0.077
25 | GCUGUCACCGAGAAACUGUGAAGUAUAUCUUAAACCUGGGCACUUAAAAGAUAUAUGGAGUUAGUAGUGCAACCUGCUCGGUCUGAUGAGUCCAAUAAGGGACGAAACAGC [AAUAAG] | 1.52 ± 0.064 | 1.7 ± 0.096
26 | GCUGUCACCGAGAAACUGUGAAGUAUAUCUUAAACCUGGGCACUUAAAAGAUAUAUGGAGUUAGUAGUGCAACCUGCUCGGUCUGAUGAGUCCAAUAGCGGACGAAACAGC [AAUAGC] | 1.62 ± 0.047 | 1.8 ± 0.1
